Measured values from IntAct's records for PubMed 25543256.

B1: Protein KTI13 (Saccharomyces cerevisiae), P31386 (parent)
chain: MSCVYAFGSNGQRQLGLGHDEDMDTPQRSVPGDDGAIVRKIACGGNHSVMLTNDGNLVGCGDNRRGELDSAQALRQVHDWRPVEVPAPVVDVACGWDTTVIVDADGRVWQRGGGCYEFTQQHVPLNSNDERIAVYGCFQNFVVVQGTRVYGWGSNTKCQLQEPKSRSLKEPVLVYDTGSVAVDYVAMGKDFMVIVDEGGRIVHASGRLPTGFELKQQQKRHNLVVLCMWTSIHLWNARLNTVESFGRGTHSQLFPQERLDFPIVGVATGSEHGILTTANQEGKSHCYNVYCWGWGEHGNCGPQKGSQPGLQLVGQYSGKPRVFGGCATTWIVL
partner: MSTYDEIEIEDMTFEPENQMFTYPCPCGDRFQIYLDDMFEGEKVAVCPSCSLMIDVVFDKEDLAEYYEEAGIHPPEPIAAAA
B2: Diphthamide biosynthesis protein 3 (Saccharomyces cerevisiae), Q3E840 (parent)
chain: B1 partner
partner: B1 chain
B3: Diphthamide biosynthesis protein 3 (Saccharomyces cerevisiae), Q3E840 (parent)
chain: B1 partner
partner: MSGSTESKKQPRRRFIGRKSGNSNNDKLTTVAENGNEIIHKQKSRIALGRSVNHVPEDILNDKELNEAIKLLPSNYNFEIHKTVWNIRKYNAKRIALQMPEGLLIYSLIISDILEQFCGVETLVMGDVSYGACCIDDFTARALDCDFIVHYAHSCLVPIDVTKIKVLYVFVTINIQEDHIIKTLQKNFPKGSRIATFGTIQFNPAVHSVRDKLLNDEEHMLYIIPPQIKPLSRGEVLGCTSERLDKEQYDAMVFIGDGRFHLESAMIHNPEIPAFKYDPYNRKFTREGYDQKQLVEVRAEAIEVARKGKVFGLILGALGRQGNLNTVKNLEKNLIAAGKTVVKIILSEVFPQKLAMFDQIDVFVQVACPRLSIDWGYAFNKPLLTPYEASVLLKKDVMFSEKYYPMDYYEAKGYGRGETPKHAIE
B4: Diphthamide biosynthesis protein 3 (Saccharomyces cerevisiae), Q3E840 (parent)
chain: B1 partner
partner: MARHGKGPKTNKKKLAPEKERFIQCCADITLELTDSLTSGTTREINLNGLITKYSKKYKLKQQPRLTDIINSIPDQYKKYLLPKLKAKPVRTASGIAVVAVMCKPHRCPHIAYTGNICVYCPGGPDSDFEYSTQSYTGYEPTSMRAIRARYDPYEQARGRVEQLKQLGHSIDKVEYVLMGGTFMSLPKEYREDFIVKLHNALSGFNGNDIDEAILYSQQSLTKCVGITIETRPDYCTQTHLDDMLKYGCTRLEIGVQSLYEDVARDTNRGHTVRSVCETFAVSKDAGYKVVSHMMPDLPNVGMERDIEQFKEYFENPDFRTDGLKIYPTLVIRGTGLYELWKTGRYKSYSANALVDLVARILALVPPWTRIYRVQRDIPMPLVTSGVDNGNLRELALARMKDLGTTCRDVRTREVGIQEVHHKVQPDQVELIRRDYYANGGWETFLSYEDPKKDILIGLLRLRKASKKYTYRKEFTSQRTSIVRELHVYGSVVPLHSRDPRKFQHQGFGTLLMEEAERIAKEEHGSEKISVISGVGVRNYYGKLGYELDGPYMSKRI

Variants of: B1
Settings: with dph3_yeast KTI11, Q3E840

Row | Variant | effect of a mutation on the interaction
1 | H297A | increasing interaction strength
2 | W229A | decreasing interaction strength
3 | E296A | increasing interaction strength

Variants of: B1
Settings: with dph3_yeast KTI11, Q3E840
Remark: another data set of the same source

Row | Variant | effect of a mutation on the interaction
4 | W294A | decreasing interaction strength
5 | W229C | disrupting interaction strength
6 | W229A | disrupting interaction strength

Variants of: B1
Settings: with dph3_yeast KTI11, Q3E840
Remark: another data set of the same source

Row | Variant | effect of a mutation on the interaction
7 | W229C | decreasing interaction strength

Variants of: B2
Settings: with ats1_yeast ATS1, P31386

Row | Variant | effect of a mutation on the interaction
8 | E8A | decreasing interaction strength
9 | Y4A | disrupting interaction strength
10 | D5A | disrupting interaction strength

Variants of: B2
Settings: with ats1_yeast ATS1, P31386
Remark: another data set of the same source

Row | Variant | effect of a mutation on the interaction
11 | Y4A | decreasing interaction strength
12 | I7A;I9A | decreasing interaction strength
13 | Y4A;D5A | decreasing interaction strength

Variants of: B2
Settings: with ats1_yeast ATS1, P31386
Remark: another data set of the same source

Row | Variant | effect of a mutation on the interaction
14 | E6A;E8A | decreasing interaction strength
15 | D5A | decreasing interaction strength

Variants of: B3
Settings: with dph1_yeast DPH1, P40487

Row | Variant | effect of a mutation on the interaction
16 | C50S | disrupting interaction strength
17 | C47S | disrupting interaction strength
18 | C25S | disrupting interaction strength
19 | C27S | disrupting interaction strength

Variants of: B4
Settings: with elp3_yeast ELP3, Q02908

Row | Variant | effect of a mutation on the interaction
20 | C50S | disrupting interaction strength
